The record followed here is publication PMC5570060 (Nucleic Acids Research, 2017).

Like-named read-outs stand apart in the source and are kept apart here.

Sequences and labels used below:
B6: FBP21^116–376 (domain or fragment, UniProt O75554 116-376, looked up)
chain: KKKRKKDPSKGRWVEGITSEGYHYYYDLISGASQWEKPEGFQGDLKKTAVKTVWVEGLSEDGFTYYYNTETGESRWEKPDDFIPHTSDLPSSKVNENSLGTLDESKSSDSHSDSDGEQEAEEGGVSTETEKPKIKFKEKNKNSDGGSDPETQKEKSIQKQNSLGSNEEKSKTLKKSNPYGEWQEIKQEVESHEEVDLELPSTENEYVSTSEADGGGEPKVVFKEKTVTSLGVMADGVAPVFKKRRTENGKSRNLRQRGDDQ

Common to all, as to assay: ITC
(In general: In ITC the heat of successive injections is recorded.)

Experiment [1] addresses T1, Brr2^C-Sec63 pre-incubated with FBP21^116–376 (human | , UniProt O75643 1840-2136; O75554 116-376).
T1 sequence (looked up) 1: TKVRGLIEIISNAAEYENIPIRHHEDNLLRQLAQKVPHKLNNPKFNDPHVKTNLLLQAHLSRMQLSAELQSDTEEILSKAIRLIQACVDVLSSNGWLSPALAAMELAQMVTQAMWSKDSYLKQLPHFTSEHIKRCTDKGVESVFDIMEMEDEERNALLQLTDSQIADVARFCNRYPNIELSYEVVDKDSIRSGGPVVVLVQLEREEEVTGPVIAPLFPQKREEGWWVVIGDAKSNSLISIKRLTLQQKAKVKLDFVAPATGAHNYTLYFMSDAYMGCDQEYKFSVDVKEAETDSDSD
T1 sequence (looked up) 2: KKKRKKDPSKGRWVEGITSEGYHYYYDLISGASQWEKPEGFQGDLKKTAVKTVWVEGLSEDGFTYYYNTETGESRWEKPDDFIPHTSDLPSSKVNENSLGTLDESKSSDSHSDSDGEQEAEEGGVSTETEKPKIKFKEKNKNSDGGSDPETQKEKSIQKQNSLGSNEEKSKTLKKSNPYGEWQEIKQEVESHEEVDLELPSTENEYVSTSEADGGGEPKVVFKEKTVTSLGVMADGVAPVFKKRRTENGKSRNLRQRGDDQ

In experiment [2] the target is B6.
Experiment [3] has as its target T2, Brr2^C-Sec63 (human, UniProt O75643 1840-2136).
T2 sequence (looked up): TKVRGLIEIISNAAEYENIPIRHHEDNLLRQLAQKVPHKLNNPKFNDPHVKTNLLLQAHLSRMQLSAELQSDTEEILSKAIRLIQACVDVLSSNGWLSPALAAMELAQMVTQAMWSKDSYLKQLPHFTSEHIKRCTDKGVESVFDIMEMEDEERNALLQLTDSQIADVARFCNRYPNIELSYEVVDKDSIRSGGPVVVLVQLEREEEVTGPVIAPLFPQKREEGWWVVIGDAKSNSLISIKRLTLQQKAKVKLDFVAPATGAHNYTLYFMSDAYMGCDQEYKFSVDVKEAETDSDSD

The target of experiment [4] is T2, Brr2^C-Sec63. The source holds these as a separate data set.
Experiment [5] concerns the target T2, Brr2^C-Sec63. This is another data set of the same source.

As to GTPMGMPPPGMRPPPPGMRGLL [SmB-derived peptide], the Kd (in general, the free concentration of one partner at which half of the binding sites on the other are occupied at equilibrium, for simple one-to-one binding) in experiment [1] is 14 ± 0.8 µM; in experiment [2], 16.8 ± 3 µM.
The molecule GVAPVFKKRRTENGKSRNLR [peptide 58] showed a dissociation constant (Kd) in experiment [3] of 1.34 ± 0.19 µM.
In the case of GVMADGVAPVFKKRRTENGK [peptide 57], in experiment [4], the Kd was found to be 27.5 µM and the stoichiometry N (usually a count of units in the complex or per binding partner) was determined as 1.

B1: FBP21^326–376 (domain or fragment, UniProt O75554 326-376, looked up)
chain: EADGGGEPKVVFKEKTVTSLGVMADGVAPVFKKRRTENGKSRNLRQRGDDQ
In experiment [4], B1 yielded a Kd of 0.11 µM.
FKKRR [core binding motif of peptide 57, ^356FKKRR^360]: the dissociation constant (Kd) in experiment [4] is 20 ± 1.1 µM.
On the same count and under the same terms, the value for GKKRR [positively charged control peptide GKKRR] was 37 ± 5.99 µM.

B2: FBP21^276–376 (domain or fragment, UniProt O75554 276-376, looked up)
chain: NSLGSNEEKSKTLKKSNPYGEWQEIKQEVESHEEVDLELPSTENEYVSTSEADGGGEPKVVFKEKTVTSLGVMADGVAPVFKKRRTENGKSRNLRQRGDDQ
Consider B2, for which, in experiment [4], the Kd was found to be 0.298 µM and the “stoichiometry N” value amounted to 1.
Take KRFKR [positively charged control peptide KRFKR]: the Kd in experiment [4] came out at 27.3 ± 3.01 µM.

B3: FBP21^200–376 (domain or fragment, UniProt O75554 200-376, looked up)
chain: HTSDLPSSKVNENSLGTLDESKSSDSHSDSDGEQEAEEGGVSTETEKPKIKFKEKNKNSDGGSDPETQKEKSIQKQNSLGSNEEKSKTLKKSNPYGEWQEIKQEVESHEEVDLELPSTENEYVSTSEADGGGEPKVVFKEKTVTSLGVMADGVAPVFKKRRTENGKSRNLRQRGDDQ
Consider B3, for which, in experiment [4], the Kd was 0.125 µM and the “stoichiometry N” value came out at 1.

B4: FBP21^200–376 K357E/R359E (domain or fragment, UniProt O75554 200-376, looked up)
chain: HTSDLPSSKVNENSLGTLDESKSSDSHSDSDGEQEAEEGGVSTETEKPKIKFKEKNKNSDGGSDPETQKEKSIQKQNSLGSNEEKSKTLKKSNPYGEWQEIKQEVESHEEVDLELPSTENEYVSTSEADGGGEPKVVFKEKTVTSLGVMADGVAPVFEKERTENGKSRNLRQRGDDQ
In experiment [4], B4 yielded a dissociation constant Kd of 27.8 ± 0.9 µM.

B5: FBP21^200–376 K358A/R360A (domain or fragment, UniProt O75554 200-376, looked up)
chain: HTSDLPSSKVNENSLGTLDESKSSDSHSDSDGEQEAEEGGVSTETEKPKIKFKEKNKNSDGGSDPETQKEKSIQKQNSLGSNEEKSKTLKKSNPYGEWQEIKQEVESHEEVDLELPSTENEYVSTSEADGGGEPKVVFKEKTVTSLGVMADGVAPVFKARATENGKSRNLRQRGDDQ
B5 showed a Kd in experiment [4] of 2.04 ± 0.37 µM.
The molecule B6 displayed a Kd in experiment [4] of 0.275 ± 0.106 µM.

B7: FBP21^116–376 pre-incubated with SmB peptide (complex)
chain: KKKRKKDPSKGRWVEGITSEGYHYYYDLISGASQWEKPEGFQGDLKKTAVKTVWVEGLSEDGFTYYYNTETGESRWEKPDDFIPHTSDLPSSKVNENSLGTLDESKSSDSHSDSDGEQEAEEGGVSTETEKPKIKFKEKNKNSDGGSDPETQKEKSIQKQNSLGSNEEKSKTLKKSNPYGEWQEIKQEVESHEEVDLELPSTENEYVSTSEADGGGEPKVVFKEKTVTSLGVMADGVAPVFKKRRTENGKSRNLRQRGDDQ
peptide: GTPMGMPPPGMRPPPPGMRGLL
The molecule B7 had a Kd in experiment [5] of 0.194 ± 0.014 µM.
